Values belong to the binder of their own block, whether it stands above or below them.
Key:
[1] = biological target: T1, Human ROR1-ECD-his (Acro Biosystems RO1-H522y) (human, UniProt Q01973 30-406); assay: BLI in-tandem competition; competitor: PR000374
T1 construct: extracellular domain; bought protein; also called hROR1-ECD-his; hu-ROR1-ECD-his
Source text: (§1) To determine if anti-ROR1 antibodies bind to human ROR1 on different or approximate binding epitopes, the ForteBio Octet® RED96e platform was used to perform epitope competition experiments on the anti-ROR1 antibodies. Human ROR1 protein (Acrobiosystems, #RO1-H522y) was biotinylated and then captured onto SA biosensors (ForteBio, #18-5020) to reach loading level of 0.3-0.4 nm. The in-tandem competition assay format was applied and it contains two association steps. Firstly, the antigen-loaded biosensors bind to each antibody (a.k.a, First antibody, 1st Ab) with a saturating concentration of 200 nM for 180 seconds to reach equilibrium and then secondly bind to the competing antibodies (a.k.a, Second antibody, 2nd Ab) of 200 nM for 180 seconds. The second binding signals were recorded as the 100% signal of each antibody when the first antibodies were replaced by kinetics buffer. All the binding data were analyzed using ForteBio Data Analysis 11.0 software. The inhibition rate is calculated by the following formula: […]

[2] = biological target: T1, Human ROR1-ECD-his (Acro Biosystems …); assay: BLI in-tandem competition; competitor: PR303191
Source text: as §1

[3] = biological target: T1, Human ROR1-ECD-his (Acro Biosystems …); assay: ELISA, coated hu-ROR1-ECD-his
[4] = biological target: T1, Human ROR1-ECD-his (Acro Biosystems …); assay: BLI in-tandem competition; competitor: PR303155
Source text: as §1

[5] = biological target: T1, Human ROR1-ECD-his (Acro Biosystems …); assay: BLI in-tandem competition; competitor: PR303199
Source text: as §1

[6] = biological target: T1, Human ROR1-ECD-his (Acro Biosystems …); assay: BLI in-tandem competition; competitor: PR303189
Source text: as §1

[7] = biological target: T1, Human ROR1-ECD-his (Acro Biosystems …); assay: BLI in-tandem competition; competitor: PR303145
Source text: as §1

[8] = biological target: T1, Human ROR1-ECD-his (Acro Biosystems …); assay: BLI in-tandem competition; competitor: PR303147
Source text: as §1

[9] = biological target: T2, human ROR1 on cells (HEK293T-hROR1, PANC-1, A549) (human, UniProt Q01973 30-937); assay: flow cytometry on HEK293T-hROR1 cells, MFI (Mean)
T2 construct: whole, on cells; one molecule for the three cell lines; also called huROR1; cell surface ROR1
Experimental: (§2) Binding of recombinant anti-ROR1 antibodies to human or cynomolgus ROR1-overexpressing cells was tested by flow cytometry. In this example, ROR1-expressing cell lines are HEK293T cell lines that had been transfected to express human ROR1 on the surface (HEK293T-hu ROR1, KYINNO BIOTECHNOLOGY CO., LTD, Catalog #KC-1018), CHO-K1 cell lines that had been transfected to express cynomolgus ROR1 (CHOK1-cyno ROR1), PANC-1 (ATCC, catalog: CRL-1469) or A549 cell lines (Shanghai Institute of Biochemistry and Cell Biology, Chinese Academy of Sciences).
(§3) In brief, anti-ROR1 antibodies were serially diluted in staining buffer (PBS containing 2% FBS). Antibody solution was incubated with 1×10⁵ cells at 4° C. for 1 hour. […] After 1-hour incubation at 4° C., cells were washed twice with staining buffer and subjected to flow cytometry. PR000374 (Bench marker 1) and non-relevant IgG isotype control (Crownbio) were used as positive and negative controls, respectively.

[10] = biological target: T3, cynomolgus ROR1 on CHO-K1-cynoROR1 cells (cynomolgus monkey, UniProt A0A2K5WTX7 30-937); assay: flow cytometry, CHO-K1-cynoROR1 cells
T3 construct: whole, on cells
Experimental: as §3

[11] = biological target: T1, Human ROR1-ECD-his (Acro Biosystems …); assay: BLI in-tandem competition; competitor: PR303201
Source text: as §1

[12] = biological target: T1, Human ROR1-ECD-his (Acro Biosystems …); assay: ELISA, plate coated with hu-ROR1-his at 1 µg/mL
Experimental: Binding of recombinant anti-ROR1 antibodies to hu-ROR1-ECD-his was tested by ELISA. In brief, 1 μg/mL hu-ROR1-ECD-his was added to the 96-well plate, 100 μL each well, incubated at 4° C. overnight, washing the plates with 1×PBST 3 times, 300 ul/well, blocking the plates with 2% BSA in 1×PBST, 200 ul/well at 37° C. for 1 hour, anti-ROR1 antibodies were serially diluted in staining buffer (PBS containing 2% BSA). Antibody solution was added to the plate and incubates at 37° C. for 1 hour, washing the plates with 1×PBST 3 times, 300 ul/well, adding secondary antibody 100 ul/well and incubate at 37° C. for 1 hour, washing the plates with 1×PBST 3 times, 300 ul/well and then add 100 ul/well TMB for about 5 min, stop the reaction by adding 100 ul/well 2M H₂SO₄, read the plates with Molecular device spectra max plus384 at 450 nm and 570 nm.

[13] = biological target: T3, cynomolgus ROR1 on CHO-K1-cynoROR1 cells; assay: flow cytometry on CHOK1-cynoROR1 cells, MFI (Mean) [bottom panel, letter not given]
Experimental: as §2, §3

[14] = biological target: T2, human ROR1 on cells (HEK293T-hROR1, …); assay: flow cytometry, HEK293T-hROR1 cells
Experimental: as §3

[15] = biological target: T2, human ROR1 on cells (HEK293T-hROR1, …); assay: flow cytometry, A549 cells
Experimental: as §3

T2 sequence (Q01973 30-937): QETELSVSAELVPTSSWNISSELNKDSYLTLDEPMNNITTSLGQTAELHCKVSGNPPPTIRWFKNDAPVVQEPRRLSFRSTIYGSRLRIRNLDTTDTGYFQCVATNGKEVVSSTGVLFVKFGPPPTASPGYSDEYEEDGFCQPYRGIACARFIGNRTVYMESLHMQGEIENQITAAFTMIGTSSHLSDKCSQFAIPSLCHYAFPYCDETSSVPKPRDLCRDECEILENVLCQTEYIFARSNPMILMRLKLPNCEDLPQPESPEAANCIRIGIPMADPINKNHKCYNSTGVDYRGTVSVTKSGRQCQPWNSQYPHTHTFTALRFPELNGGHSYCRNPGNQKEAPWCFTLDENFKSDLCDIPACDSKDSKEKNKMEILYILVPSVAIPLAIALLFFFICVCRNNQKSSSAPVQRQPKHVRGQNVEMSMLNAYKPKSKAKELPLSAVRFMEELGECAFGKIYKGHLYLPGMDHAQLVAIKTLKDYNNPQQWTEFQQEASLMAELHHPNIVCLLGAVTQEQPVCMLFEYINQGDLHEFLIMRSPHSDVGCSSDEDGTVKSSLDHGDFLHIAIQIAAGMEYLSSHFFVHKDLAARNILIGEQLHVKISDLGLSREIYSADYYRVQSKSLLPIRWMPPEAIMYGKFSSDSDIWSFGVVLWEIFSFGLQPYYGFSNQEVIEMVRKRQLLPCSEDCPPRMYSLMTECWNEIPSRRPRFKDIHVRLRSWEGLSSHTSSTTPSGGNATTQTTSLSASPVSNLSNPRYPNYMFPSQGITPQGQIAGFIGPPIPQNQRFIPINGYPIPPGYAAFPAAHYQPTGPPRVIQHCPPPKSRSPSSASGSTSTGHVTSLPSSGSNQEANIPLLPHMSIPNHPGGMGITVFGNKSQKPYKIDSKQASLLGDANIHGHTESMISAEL
T1 sequence (Q01973 30-406): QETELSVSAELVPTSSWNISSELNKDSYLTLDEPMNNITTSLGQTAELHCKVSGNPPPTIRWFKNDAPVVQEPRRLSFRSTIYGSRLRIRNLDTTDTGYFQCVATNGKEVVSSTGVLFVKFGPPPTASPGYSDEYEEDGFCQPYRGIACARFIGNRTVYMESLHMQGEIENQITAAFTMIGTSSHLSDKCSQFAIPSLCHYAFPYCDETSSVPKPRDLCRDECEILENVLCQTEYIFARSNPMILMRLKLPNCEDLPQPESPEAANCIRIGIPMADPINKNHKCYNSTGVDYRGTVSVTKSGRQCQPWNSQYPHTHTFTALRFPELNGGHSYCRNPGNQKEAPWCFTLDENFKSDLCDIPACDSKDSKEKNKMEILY

- Inhibition (%) [1]: -38%
- Inhibition (%) [2]: 80%
- EC50 [3]: 0.001 µg/mL
- Inhibition (%) [4]: -62%
- Inhibition (%) [5]: -57%
- Inhibition (%) [6]: -99%
- Inhibition (%) [7]: -70%
- Inhibition (%) [8]: -60%
- EC50 (read off the curve) [9]: ~0.04 µg/mL
- EC50 [10]: 0.03 µg/mL
- MAX(MFI) [10]: 9.24e+06 MFI
- Inhibition (%) [11]: 57%
- EC50 (read off the curve) [12]: ~0.0007 µg/mL
- EC50 (read off the curve) [13]: ~0.03 µg/mL
- EC50 [14]: 0.044 µg/mL
- MAX(MFI) [14]: 1.4e+07 MFI
- EC50 [15]: 0.01 µg/mL
- MAX(MFI) [15]: 650000 MFI
B1: PR303191 (antibody, human IgG1, V domains shown)
VH: EVQLLESGGGLVQPGGSLRLSCAASGFIFGSYAMSWVRQAPGKGLEWVSGISGTGGNTYYADSVKGRFTISRDNSKNTLYLQMNSLRAEDTAVYFCERGITIHGVVIIPPDYRGQGTLVTVSS
notes: HCAb (heavy chain-only, human IgG1 Fc), no light chain

- Inhibition (%) [1]: 109%
- Inhibition (%) [2]: -34%
- EC50 [3]: 0.001 µg/mL
- Inhibition (%) [4]: -67%
- Inhibition (%) [5]: -61%
- Inhibition (%) [6]: -52%
- Inhibition (%) [7]: -61%
- Inhibition (%) [8]: -72%
- EC50 (read off the curve) [9]: ~0.5 µg/mL
- EC50 [10]: 0.314 µg/mL
- MAX(MFI) [10]: 1.05e+07 MFI
- Inhibition (%) [11]: -63%
- EC50 (read off the curve) [12]: ~0.0008 µg/mL
- EC50 (read off the curve) [13]: ~0.3 µg/mL
- EC50 [14]: 0.506 µg/mL
- MAX(MFI) [14]: 1.49e+07 MFI
- EC50 [15]: 0.61 µg/mL
- MAX(MFI) [15]: 695000 MFI
B2: PR000374 (antibody, human IgG1, kappa, V domains shown)
VH: EVQLVESGGGLVQPGRSLRLSCTASGSDINDYPITWVRQAPGQGLEWIGFINSGGSTWYASWVKGRFTISRDDSKSIAYLQMNSLKTEDTAVYYCARGYSTYYRDFNIWGQGTLVTVSS
VL: DIQMTQSPSSLSASVGDRVTINCQASQSIDSNLAWFQQKPGQPPKLLIYRASNLASGVPDRFSGSGSGTDFTLTISSLEAEDVATYYCLGGVGAVSYRTSFGGGTKVEIKR
notes: positive control; also called Bench marker 1

- Inhibition (%) [1]: -24%
- Inhibition (%) [2]: 109%
- EC50 [3]: 0.002 µg/mL
- Inhibition (%) [4]: -62%
- Inhibition (%) [5]: -48%
- Inhibition (%) [6]: -24%
- Inhibition (%) [7]: -41%
- Inhibition (%) [8]: -88%
- EC50 (read off the curve) [9]: ~0.3 µg/mL
- EC50 [10]: 0.222 µg/mL
- MAX(MFI) [10]: 8.27e+06 MFI
- Inhibition (%) [11]: 86%
- EC50 (read off the curve) [12]: ~0.002 µg/mL
- EC50 (read off the curve) [13]: ~0.2 µg/mL
- EC50 [14]: 0.273 µg/mL
- MAX(MFI) [14]: 1.5e+07 MFI
- EC50 [15]: 0.16 µg/mL
- MAX(MFI) [15]: 668000 MFI
B3: PR303125 (antibody, human IgG1, V domains shown)
VH: EVQLLESGGGLVQPGGSLRLSCAASGFTFSSHAMSWVRQAPGKGLEWVSAISGSGDSTHYAASVKGRFTISRDNSKNTLYLQMNSLRAEDTAVYYCETLLRFLESLGNDGFKIWGQGTMVTVSS
notes: as for B1

Reference: patent publication US20250257130A1 (NONA BIOSCIENCES SUZHOU, published 2025)
